Experimental findings from publication PMC6367351 (Nature Communications, 2019) are described below.

Where no end group is shown, it is not given here.

For series [1], the target named is T1, MinElp3 (Methanocaldococcus infernus, UniProt D5VRB9 1-534).
T1 sequence: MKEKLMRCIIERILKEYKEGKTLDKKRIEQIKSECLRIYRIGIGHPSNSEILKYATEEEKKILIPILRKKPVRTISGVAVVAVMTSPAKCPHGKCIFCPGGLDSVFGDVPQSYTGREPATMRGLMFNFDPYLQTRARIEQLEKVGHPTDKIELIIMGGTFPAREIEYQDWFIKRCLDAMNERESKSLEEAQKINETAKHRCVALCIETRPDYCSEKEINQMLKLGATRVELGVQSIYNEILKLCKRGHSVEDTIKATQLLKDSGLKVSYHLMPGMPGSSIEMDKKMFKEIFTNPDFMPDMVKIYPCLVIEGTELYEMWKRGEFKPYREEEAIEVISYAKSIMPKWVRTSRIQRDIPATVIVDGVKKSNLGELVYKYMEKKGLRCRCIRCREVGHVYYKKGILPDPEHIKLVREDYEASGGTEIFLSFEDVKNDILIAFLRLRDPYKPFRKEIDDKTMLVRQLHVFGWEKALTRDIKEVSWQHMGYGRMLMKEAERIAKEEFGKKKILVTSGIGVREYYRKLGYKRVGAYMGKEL
Kind of series: MST. The note with it: EMSA: 25 C 30 min, 6% native PAGE at 4 C, tRNA stored in 20 mM HEPES pH 7.5, 150 mM NaCl, 5 mM DTT, 1 mM MgCl2, MST buffer not given in material.

Series [2] deals with MinElp3Δ1-19 (Methanocaldococcus infernus). Kind of series: MST. The note with it: legend omits CCA; wt data identical to the CCA set; EMSA: 25 C 30 min, 6% native PAGE at 4 C; tRNA stored in 20 mM HEPES pH 7.5, 150 mM NaCl, 5 mM DTT, 1 mM MgCl2; MST buffer not given in material. In general terms: In EMSA bound probe runs differently from free probe, usually more slowly.
Series [3] deals with ScMinElp3 (Methanocaldococcus infernus / Saccharomyces cerevisiae chimera). Kind of series: MST. The conditions noted are these: mean of 229, 162, 75; EMSA: 25 C 30 min, 6% native PAGE at 4 C; tRNA stored in 20 mM HEPES pH 7.5, 150 mM NaCl, 5 mM DTT, 1 mM MgCl2; MST buffer not given in material.
Series [4] deals with DmcElp3 (Dehalococcoides mccartyi). The series can be described thus: MST. The note with it: EMSA: 25 C 30 min, 6% native PAGE at 4 C; tRNA stored in 20 mM HEPES pH 7.5, 150 mM NaCl, 5 mM DTT, 1 mM MgCl2; MST buffer not given in material.
The test system of series [5] is HsMinElp3 (Methanocaldococcus infernus / Homo sapiens chimera). The series can be described thus: MST. The conditions noted are these: mean of 180, 141, 108; EMSA: 25 C 30 min, 6% native PAGE at 4 C; tRNA stored in 20 mM HEPES pH 7.5, 150 mM NaCl, 5 mM DTT, 1 mM MgCl2; MST buffer not given in material.
In series [6] the test system is MinElp3Δ1-41 (Methanocaldococcus infernus). Kind of series: MST. The note with it: legend omits CCA; wt data identical to the CCA set; EMSA: 25 C 30 min, 6% native PAGE at 4 C; tRNA stored in 20 mM HEPES pH 7.5, 150 mM NaCl, 5 mM DTT, 1 mM MgCl2; MST buffer not given in material.
For series [7], the target named is T2, MinElp3 (Methanocaldococcus infernus) (UniProt D5VRB9).
T2 sequence: T1 sequence
Kind of series: MST. The conditions noted are these: EMSA: 25 C 30 min, 6% native PAGE at 4 C; tRNA stored in 20 mM HEPES pH 7.5, 150 mM NaCl, 5 mM DTT, 1 mM MgCl2; MST buffer not given in material.

Series [8] deals with the molecule itself. Kind of series: SEC; S200 gel filtration, 20 mM HEPES pH 7.5, 150 mM NaCl, 5 mM DTT; aerobic purification; masses of the monomeric forms confirmed by SDS-PAGE and light scattering (RALS and LALS). Background: SEC sorts molecules by how far they enter the pores of the column.
Series [9] has as its target T1, MinElp3. Kind of series: EMSA; EMSA: 25 C 30 min, 6% native PAGE at 4 C; tRNA stored in 20 mM HEPES pH 7.5, 150 mM NaCl, 5 mM DTT, 1 mM MgCl2; MST buffer not given in material. The conditions noted are these: protein: recombinant; tags: GST tag cleaved (TEV); label: Cy5; hairpin.
Series [10] has as its target T3, Methanocaldococcus infernus Elp3, full length (Methanocaldococcus infernus, UniProt D5VRB9 1-534).
T3 chain: T1 sequence
The series can be described thus: ITC.

The term Kd denotes a measure of binding affinity in units of concentration. A lower Kd goes with tighter binding.

Molecule (Dmc)tRNAGluUUC had a Kd in the series with MinElp3 [1] (mean of 495, 434, 596) of 508 nM.

Take (Dmc)tRNAGluUUC(CCA): the Kd in series [2] is 210 nM; in [3] it was 155 nM; in [4], 1410 nM; in the series with MinElp3 [1], 50 nM; in series [5], 143 nM; in series [6], 980 nM.

Consider (Sc)tRNACysGCA, for which the dissociation constant Kd in the series with MinElp3 [1] (replicates 240, 261, 280 nM) came to 260 nM.

On to (Sc)tRNASerUGA, for which, in the series with MinElp3 [1] (replicates 322, 539, 293 nM), the Kd came out at 370 nM.

As to “GCUCGUAUGGCGCAGUGGUAGCGCAGCAGAUUGCAAAUCUGUUGGUCCUUAGUUCGAUCCUGAGUGCGAGCUGCGUCUUCCCAUGGGUGUAUUCGGUCG [(Sc)tRNACysGCA]”, in series [7], the Kd is 260 nM.

B1: MinElp3 Δ1–46 (domain or fragment, Methanocaldococcus infernus, UniProt D5VRB9 47-534, looked up)
chain: SNSEILKYATEEEKKILIPILRKKPVRTISGVAVVAVMTSPAKCPHGKCIFCPGGLDSVFGDVPQSYTGREPATMRGLMFNFDPYLQTRARIEQLEKVGHPTDKIELIIMGGTFPAREIEYQDWFIKRCLDAMNERESKSLEEAQKINETAKHRCVALCIETRPDYCSEKEINQMLKLGATRVELGVQSIYNEILKLCKRGHSVEDTIKATQLLKDSGLKVSYHLMPGMPGSSIEMDKKMFKEIFTNPDFMPDMVKIYPCLVIEGTELYEMWKRGEFKPYREEEAIEVISYAKSIMPKWVRTSRIQRDIPATVIVDGVKKSNLGELVYKYMEKKGLRCRCIRCREVGHVYYKKGILPDPEHIKLVREDYEASGGTEIFLSFEDVKNDILIAFLRLRDPYKPFRKEIDDKTMLVRQLHVFGWEKALTRDIKEVSWQHMGYGRMLMKEAERIAKEEFGKKKILVTSGIGVREYYRKLGYKRVGAYMGKEL
notes: Elp3 of Methanocaldococcus infernus without residues 1-46; Truncations were cloned into pETM30 or pETM11; source: E. coli BL21 (DE3) CodonPlus-RIL, purified (GSTPrep, heparin, SEC)
Consider B1, for which the binding result in series [8] is “binds”.

In the case of GACAGACUUGAAAUCUGUU (structured_RNA) [ASL yeast tRNASerUGA], the binding result with MinElp3 [9] is “binds”.

B2: MinElp3 Δ1–41 (domain or fragment, Methanocaldococcus infernus, UniProt D5VRB9 42-534, looked up)
chain: GIGHPSNSEILKYATEEEKKILIPILRKKPVRTISGVAVVAVMTSPAKCPHGKCIFCPGGLDSVFGDVPQSYTGREPATMRGLMFNFDPYLQTRARIEQLEKVGHPTDKIELIIMGGTFPAREIEYQDWFIKRCLDAMNERESKSLEEAQKINETAKHRCVALCIETRPDYCSEKEINQMLKLGATRVELGVQSIYNEILKLCKRGHSVEDTIKATQLLKDSGLKVSYHLMPGMPGSSIEMDKKMFKEIFTNPDFMPDMVKIYPCLVIEGTELYEMWKRGEFKPYREEEAIEVISYAKSIMPKWVRTSRIQRDIPATVIVDGVKKSNLGELVYKYMEKKGLRCRCIRCREVGHVYYKKGILPDPEHIKLVREDYEASGGTEIFLSFEDVKNDILIAFLRLRDPYKPFRKEIDDKTMLVRQLHVFGWEKALTRDIKEVSWQHMGYGRMLMKEAERIAKEEFGKKKILVTSGIGVREYYRKLGYKRVGAYMGKEL
notes: Elp3 of Methanocaldococcus infernus without residues 1-41; Truncations were cloned into pETM30 or pETM11; source: E. coli BL21 (DE3) CodonPlus-RIL, purified (GSTPrep, heparin, SEC)
For the molecule B2, the binding result in [8] is listed as “binds”.

On to YMPSDKTIGG-NH2 (not fully specified (N-terminus)) [alpha-tubulin peptide Tubulin(36–44) with an added N-terminal tyrosine], for which, in [10], the dissociation constant Kd was greater than 500000 nM.

YSTGGKAPRK-NH2 (not fully specified (N-terminus)) [histone H3 peptide H3(10–18) with an added N-terminal tyrosine] returned a Kd in series [10] greater than 350000 nM.

B3: MinElp3 Δ1–68 (domain or fragment, Methanocaldococcus infernus, UniProt D5VRB9 69-534, looked up)
chain: KKPVRTISGVAVVAVMTSPAKCPHGKCIFCPGGLDSVFGDVPQSYTGREPATMRGLMFNFDPYLQTRARIEQLEKVGHPTDKIELIIMGGTFPAREIEYQDWFIKRCLDAMNERESKSLEEAQKINETAKHRCVALCIETRPDYCSEKEINQMLKLGATRVELGVQSIYNEILKLCKRGHSVEDTIKATQLLKDSGLKVSYHLMPGMPGSSIEMDKKMFKEIFTNPDFMPDMVKIYPCLVIEGTELYEMWKRGEFKPYREEEAIEVISYAKSIMPKWVRTSRIQRDIPATVIVDGVKKSNLGELVYKYMEKKGLRCRCIRCREVGHVYYKKGILPDPEHIKLVREDYEASGGTEIFLSFEDVKNDILIAFLRLRDPYKPFRKEIDDKTMLVRQLHVFGWEKALTRDIKEVSWQHMGYGRMLMKEAERIAKEEFGKKKILVTSGIGVREYYRKLGYKRVGAYMGKEL
notes: Elp3 of Methanocaldococcus infernus without residues 1-68; Truncations were cloned into pETM30 or pETM11; source: E. coli BL21 (DE3) CodonPlus-RIL, purified (GSTPrep, heparin, SEC)
As for B3, the binding result in [8] is recorded as “binds”.

B4: MinElp3 Δ1–19 (domain or fragment, Methanocaldococcus infernus, UniProt D5VRB9 20-534, looked up)
chain: GKTLDKKRIEQIKSECLRIYRIGIGHPSNSEILKYATEEEKKILIPILRKKPVRTISGVAVVAVMTSPAKCPHGKCIFCPGGLDSVFGDVPQSYTGREPATMRGLMFNFDPYLQTRARIEQLEKVGHPTDKIELIIMGGTFPAREIEYQDWFIKRCLDAMNERESKSLEEAQKINETAKHRCVALCIETRPDYCSEKEINQMLKLGATRVELGVQSIYNEILKLCKRGHSVEDTIKATQLLKDSGLKVSYHLMPGMPGSSIEMDKKMFKEIFTNPDFMPDMVKIYPCLVIEGTELYEMWKRGEFKPYREEEAIEVISYAKSIMPKWVRTSRIQRDIPATVIVDGVKKSNLGELVYKYMEKKGLRCRCIRCREVGHVYYKKGILPDPEHIKLVREDYEASGGTEIFLSFEDVKNDILIAFLRLRDPYKPFRKEIDDKTMLVRQLHVFGWEKALTRDIKEVSWQHMGYGRMLMKEAERIAKEEFGKKKILVTSGIGVREYYRKLGYKRVGAYMGKEL
notes: Elp3 of Methanocaldococcus infernus without residues 1-19; Truncations were cloned into pETM30 or pETM11; The general purification goes by a GST tag that is cleaved; source: E. coli BL21 (DE3) CodonPlus-RIL, purified (GSTPrep, heparin, SEC)
For B4, the binding result in series [8] is on record as “binds”.

B5: MinElp3 Δ1–54 (domain or fragment, Methanocaldococcus infernus, UniProt D5VRB9 55-534, looked up)
chain: ATEEEKKILIPILRKKPVRTISGVAVVAVMTSPAKCPHGKCIFCPGGLDSVFGDVPQSYTGREPATMRGLMFNFDPYLQTRARIEQLEKVGHPTDKIELIIMGGTFPAREIEYQDWFIKRCLDAMNERESKSLEEAQKINETAKHRCVALCIETRPDYCSEKEINQMLKLGATRVELGVQSIYNEILKLCKRGHSVEDTIKATQLLKDSGLKVSYHLMPGMPGSSIEMDKKMFKEIFTNPDFMPDMVKIYPCLVIEGTELYEMWKRGEFKPYREEEAIEVISYAKSIMPKWVRTSRIQRDIPATVIVDGVKKSNLGELVYKYMEKKGLRCRCIRCREVGHVYYKKGILPDPEHIKLVREDYEASGGTEIFLSFEDVKNDILIAFLRLRDPYKPFRKEIDDKTMLVRQLHVFGWEKALTRDIKEVSWQHMGYGRMLMKEAERIAKEEFGKKKILVTSGIGVREYYRKLGYKRVGAYMGKEL
notes: Elp3 of Methanocaldococcus infernus without residues 1-54; Truncations were cloned into pETM30 or pETM11; source: E. coli BL21 (DE3) CodonPlus-RIL, purified (GSTPrep, heparin, SEC)
B5: the binding result in series [8] was “binds”.
